Biological target: human αVβ3/5 integrins on human tumor cells (A375.S2, MDA-MB-231, A2780, HT29, A549) (human, UniProt P06756 31-1048)
Test: cell-based or functional assay

human αVβ3/5 integrins on human tumor cells (A375.S2, MDA-MB-231, A2780, HT29, A549), sequence (P06756 31-1048): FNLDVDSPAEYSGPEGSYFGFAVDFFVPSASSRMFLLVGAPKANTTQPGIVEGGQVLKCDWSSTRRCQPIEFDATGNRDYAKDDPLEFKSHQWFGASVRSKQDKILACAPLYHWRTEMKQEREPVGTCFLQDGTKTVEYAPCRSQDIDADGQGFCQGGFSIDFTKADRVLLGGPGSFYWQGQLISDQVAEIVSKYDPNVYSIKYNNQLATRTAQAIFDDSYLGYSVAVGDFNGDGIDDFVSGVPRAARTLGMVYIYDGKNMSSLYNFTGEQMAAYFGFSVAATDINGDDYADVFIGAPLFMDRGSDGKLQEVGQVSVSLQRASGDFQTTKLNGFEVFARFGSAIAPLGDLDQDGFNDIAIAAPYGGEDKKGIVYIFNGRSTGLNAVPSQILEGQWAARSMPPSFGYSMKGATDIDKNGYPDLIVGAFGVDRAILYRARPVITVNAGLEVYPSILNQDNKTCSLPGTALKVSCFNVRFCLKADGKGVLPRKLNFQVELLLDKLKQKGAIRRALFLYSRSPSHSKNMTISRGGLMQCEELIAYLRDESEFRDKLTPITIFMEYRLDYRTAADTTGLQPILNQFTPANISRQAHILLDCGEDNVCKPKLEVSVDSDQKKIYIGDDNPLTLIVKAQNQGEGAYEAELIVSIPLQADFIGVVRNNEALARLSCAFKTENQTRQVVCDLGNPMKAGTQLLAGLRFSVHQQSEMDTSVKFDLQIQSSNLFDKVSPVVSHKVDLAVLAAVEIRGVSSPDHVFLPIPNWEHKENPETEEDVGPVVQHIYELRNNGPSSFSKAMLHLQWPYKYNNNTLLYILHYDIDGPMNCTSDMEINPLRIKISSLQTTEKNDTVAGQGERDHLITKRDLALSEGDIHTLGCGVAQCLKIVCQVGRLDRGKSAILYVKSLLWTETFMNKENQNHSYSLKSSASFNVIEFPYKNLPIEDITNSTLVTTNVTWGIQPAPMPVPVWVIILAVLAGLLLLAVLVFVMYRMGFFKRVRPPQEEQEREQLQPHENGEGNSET

B1: CNTO95 Fab′ (from pepsin cleavage, reduction and reoxidation) conjugated to PEG-DSPE on the surface of liposomes (Fab, V domains shown)
VH: QVQLVESGGGVVQPGRSRRLSCAASGFTFSRYTMHWVRQAPGKGLEWVAVISFDGSNKYYVDSVKGRFTISRDNSENTLYLQVNILRAEDTAVYYCAREARGSYAFDIWGQGTMVTVSS
VL: EIVLTQSPATLSLSPGERATLSCRASQSVSSYLAWYQQKPGQAPRLLIYDASNRATGIPARFSGSGSGTDFTLTISSLEPEDFAVYYCQQRSNWPPFTFGPGTKVDIKR
modifications: free sulfhydryl near the C-terminus conjugated to maleimide-PEG-DSPE inserted in the liposome
B1 was tested, and the “Increase (ratio of IC50 of liposome-entrapped doxorubicin to IC50 of 90:1 integrin-targeted liposomes), breast cancer MDA-MB-231” value was 5, the “Increase (ratio of IC50 of liposome-entrapped doxorubicin to IC50 of 90:1 integrin-targeted liposomes), colon cancer HT29” value was 1.1 and the “Increase (ratio of IC50 of liposome-entrapped doxorubicin to IC50 of 90:1 integrin-targeted liposomes), lung cancer A549” value was 1. For the same binder, the “Increase (ratio of IC50 of liposome-entrapped doxorubicin to IC50 of 90:1 integrin-targeted liposomes), melanoma A375.S2” value was 29 and the “Increase (ratio of IC50 of liposome-entrapped doxorubicin to IC50 of 90:1 integrin-targeted liposomes), ovarian cancer A2780” value was 29.

From patent US20090196913A1 (published 2009)
